# Source: publication PMC4081050
# Substrate: O=C(O)[C@@H](O)[C@H](O)[C@H](O)[C@@H](O)C(=O)O
# Assay: purified protein
# Conditions: dehydration, 20 mM HEPES pH 7.9, 5 mM MgCl2, 1 μM enzyme
protein,measurement,value
A9CG74 (GalrD-III) (Agrobacterium fabrum str. C58) (protein) MKIDRMRVFVTRDKDRPRVIVALDTDDGMTGWGECYNHGPDLALPPVLDYLYNFLAGQDPTRVEFLYNLMLQQNRFPPGALGLSAISALDHCLWDLAAKAVGVPVYKLLGGEVRNRIKVYAGVYTAPDAPAARDEFDRLNEGWGFSAFKLSPWRVDIHAHRWGEVVRSSAEYFRTLRETVRADYDIAFDAHAKIFEPSAARQLGNALAPYDPLFYEEPLRPENIEMYGDLKQGLNCTLATGESLYNRNEFLRLLQVKGADIIQPDICVVGGISEMRRIATLAEAHFVSIAPHNPMGPLATAVNVHFCAVQQNFRILEYRLPKGQVYAYGGNDLVKEEDVTRYVVDPYLPRDGYLELRPDRPGWGVEMDEKAMQEDGYVHWQRRVPKRPDGSYAFA,Km,80 ± 30 µM
same,kcat,0.12 ± 0.05 s⁻¹
same,kcat/Km,1500 M⁻¹ s⁻¹
